For the assay, the target named is human VEGF165 protein (human). The assay can be described thus: ELISA; plates coated with recombinant human PD-L1 or VEGF165 (100 ng/well, carbonate buffer); antibody 1 h at room temperature; detected with HRP goat anti-human Fc, TMB, 450 nm. In general terms: An ELISA detects its analyte on a solid surface through an enzyme-linked reagent.

B1: HB0025 (anti-PD-L1/VEGFR1D2-Ig fusion protein) (bispecific antibody, V domains shown)
VH: QVQLVQSGAEVKKPGASVKVSCKASGYAFTGYTIHWVRQAPGQRLEWMGWFYPGSGTLKYSEKFQGRVTITRDKSLSTAYMELSSLRSEDTAVYYCARHGTGTLMAMDYWGQGTLVTVSS
VL: DVVMTQTPLSLSVTPGQPASISCKSSQSLANSYGNTYLSWYLHKPGQSPQLLIYGISNRFSGVPDRFSGSGSGTDFTLKISRVEAEDVGVYYCLQGTHQPPTFGQGTKLEIK
The EC50 is the concentration that produces a half-maximal response. For B1, the EC50 was found to be 0.48 nM.

For the origin of these results see PMC8678608.
